According to article PMC12645976, “ARGLU1 is a negative regulator of the adenoviral replicative cycle” (Journal of Virology, 2025):

Molecular target: T1, 6xHis-E1A289R (HAdV5 E1A289R, 6xHis-tagged fusion protein) (human adenovirus 5 (HAdV5), UniProt P03255 1-289)
T1 construct: Early protein 1A (E1A) of human adenovirus 5 (HAdV5), the 289R product (289 residues by its name); also called Early protein 1A
Experiment: pull-down; GST-ARGLU1 or GST mixed with 6xHis-E1A289R, captured on glutathione beads; 1 µg of each protein; western blot with M73 and M2 monoclonal E1A antibodies; glutathione beads alone as negative control
Conditions: both partners purified

T1 sequence (P03255 whole entry, the tested form may be a part): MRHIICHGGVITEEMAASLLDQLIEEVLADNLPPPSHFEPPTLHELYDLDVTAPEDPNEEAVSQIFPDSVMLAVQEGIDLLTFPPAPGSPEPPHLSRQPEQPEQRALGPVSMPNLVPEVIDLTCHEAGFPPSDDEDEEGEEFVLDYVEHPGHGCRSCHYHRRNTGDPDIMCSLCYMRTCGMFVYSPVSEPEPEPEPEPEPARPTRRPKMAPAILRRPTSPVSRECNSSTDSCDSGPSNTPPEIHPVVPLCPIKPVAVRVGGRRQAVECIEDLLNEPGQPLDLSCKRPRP

B1: GST-ARGLU1 (human ARGLU1, GST-tagged fusion protein) (natural protein, UniProt Q9NWB6 1-273, looked up)
chain: MGRSRSRSSSRSKHTKSSKHNKKRSRSRSRSRDKERVRKRSKSRESKRNRRRESRSRSRSTNTAVSRRERDRERASSPPDRIDIFGRTVSKRSSLDEKQKREEEEKKAEFERQRKIRQQEIEEKLIEEETARRVEELVAKRVEEELEKRKDEIEREVLRRVEEAKRIMEKQLLEELERQRQAELAAQKAREEEERAKREELERILEENNRKIAEAQAKLAEEQLRIVEEQRKIHEERMKLEQERQRQQKEEQKIILGKGKSRPKLSFSLKTQD
notes: Arginine and glutamate-rich protein 1 (ARGLU1), human; also called Arginine and glutamate-rich protein 1; source: E. coli BL21 (DE3)-CodonPlus RIPL, purified (glutathione Sepharose, eluted with reduced glutathione, dialyzed)
**Q.** Does B1 bind?
**A.** Result: binds
